Assay results taken from the DeepSol protein solubility set.

Assay: soluble on expression in E. coli; label from the status in PepcDB or PDB records

Soluble on expression in E. coli, soluble:
MSSKDKKPSKPSSSRGGIRTLSDLNRRSGPDSDSDSDGPQEYYTGGEKSGMLVQDPSKKDDVDEIFNQARQLGAVEGPLEPPPSSRSFTGTGRLLSGENVPTGNQQPEPVVHNIVFWSNGFTIDDGPLRKLDDPENASFLEVNDFHSIRKSECPKELEPADRRAPVHVNLMRKEEKCPERQKRRVSFQGVGRTLGGSNEGSGSSSPVAPDSAPIPIQTEPAPSQSLVIDETVPTTSIQLRLADGTRLVAKFNHHHTVNDIRGFIDSSRPGASLNYQLQTMGFPPKPLTDLTQTIEEAGLANSVVLQKF
MSLSVTIFSEFESEVRSYCRAFPAVFSRAKGEYLLAEDGRKFLDFFAGAGSLNYGHNDDDMIEAAISYMRQDGVLNGLDLNTSAKAEFIETFRTLVLQPRDLNYKLQFTGPTGANAVEAAMKLARKVTQRPDIACFSGGYHGMSLGALSVTANAVKRASLVVQVPGVVRLPYEGAIEGSVASQLRVLQDMLCRPGFGIDPPAAFLLECVQGEGGVNCASAEWLQGVAALARKLGALLIVDEIQTGCGRTGRFFSFEHACIEPDIICLSKSLGGGGLPFSLNLIKPEIDIWNPGEHNGTFRGNNLAMVMATAALRKYWATPHFAHEVEEKGLAVAACLKNALQAFDGQVRVVGKGLMIGLRFQHAEHAREASRRLFESGLLIEVCGPRNEVLKLMPVLTMDRQAMLAAASRIAACAQALLSRSLESETEGHHHHHH
SLFQIGDNIVYPMHGAGIIEAIEEKEFLEEKQQYYVIRMSISNMTVMIPTSKILSSNIRPVTDILALKHIMHIFQHGESDRLLPWKQRYKINTDKIKTGEIQEGAEVVRDLMRMKKEKALNASEKKMLDNAYEFLISELEVIKGITEKQIKSFG
YNSGKLEEFVQGNLERECMEEKCSFEEAREVFENTERTTEFWKQYEEEEEE
MTYLETAAQFYSEVAQTPQVGLCCVQSTPLQLPGLKIPLPMQEMNYGCGTTVHPTELGKQPTVLYVGVGGGLEALQFAYFSRRPGAVIAVEPVAAMREAAARNLEMALTDNPWFDSSFVEIREGDAFNLPVADGSVDIVAQNCLFNIFEPEDLTRALKEAYRVLKPGGRLQMSDPIATSPVPAHLQQDERLRAMCLSGALTYEEYTQRIIDAGFGQIEIRARRPYRLLDSQTYNLETHLLLESLDSVSFKVPMPEDGACIFTGRTAIYAGCDAFFDDKAGHILQRGIPATVCDKTAAKLATVKPKEVIITDSTWHYNGGGCCLEHHHHHH
MTEFDNLTWLHGKPQGSGLLKANPEDFVVVEDLGFTPDGEGEHILLRILKNGCNTRFVADALAKFLKIHAREVSFAGQKDKHAVTEQWLCARVPGKEMPDFSAFQLEGCKVLEYARHKRKLRLGALKGNAFTLVLREISDRRDVETRLQAIRDGGVPNYFGAQRFGIGGSNLQGALRWAQSNAPVRDRNKRSFWLSAARSALFNQIVHQRLKKPDFNQVVDGDALQLAGRGSWFVATSEELPELQRRVDEKELMITASLPGSGEWGTQRAALAFEQDAIAQETVLQSLLLREKVEASRRAMLLYPQQLSWNWWDDVTVELRFWLPAGSFATSVVRELINTMGDYAHIAELEHHHHHH
MAGDPMGSKNESTASKASGTASEKKKIEYLDKTYEVTVPTDKIAITGSVESMEDAKLLDVHPQGAISFSGKFPDMFKDITDKAEPTGEKMEPNIEKILEMKPDVILASTKFPEKTLQKISTAGTTIPVSHISSNWKENMMLLAQLTGKEKKAKKIIADYEQDLKEIKTKINDKAKDSKALVIRIRQGNIYIYPEQVYFNSTLYGDLGLKAPNEVKAAKAQELSSLEKLSEMNPDHIFVQFSDDENADKPDALKDLEKNPIWKSLKAVKEDHVYVNSVDPLAQGGTAWSKVRFLKAAAEKLTQNLEHHHHHH
MSLEPDPDYVEPRLEGPQKQAASEIIEDVRKGGFHVSLIDGVTGSGKTEVYFEAVAETLRQGKQVLILLPEIALTAAFLERFQDRFGAKPAEWHSDLSPRMREKVWRQAVTGEIKVVAGARSALFLPFDNLGLIIVDEEHDPAYKQEDRVFYNARDMAVVRARIAEFPVVLVSATPSVESQVNGSSGRYNTIHLHTRFGDAAMPDLHLVDMRRHPPERGGFLSPVLLRGIGKTIEKGEQSLLFLNRRGYAPLTLCRVCGHRFQCPQCSSWLVEHRFRNQLQCHQCGHNEPTPDHCPECGTFDHLVACGPGVERIAEEVEKHFPEARTIVLSSDLMGVKRLRLELEAIVKGEADIVIGTQLVAKGHNFPLMTLVGIVDADLGLANGDPRAAERTFQLLSQVTGRAGRTGLKSHGLLQTYQPQHPVMQAIVSGDASAFYEREIVEREKAVLPPFGRLASIIVSADTRAEAETHARGLRAAAPQVTGIMLLGPAEAPLALIRGRHRFRLLVHGRRNSDMQSFLRTLLASGPKERGSVHVQLDIDPQSFLEGHHHHHH
MVDKGVKIKVDYIGKLESGDVFDTSIEEVAKEAGIYAPDREYEPLEFVVGEGQLIQGFEEAVLDMEVGDEKTVKIPAEKAYGNRNEMLIQKIPRDAFKEADFEPEEGMVILAEGIPATITEVTDNEVTLDFNHELAGKDLVFTIKIIEVVE
MTTSLHRLEALAHPARVRIVRLLAELPDEETAKDPRCGTAYGVCFCHLKEKTGLSAPTVSHHLRILREAGLVEGVRVGRWTYYRLRPGALEAVARELLGLAQRARALEERSA
GHMENKVINFKKIIDSRGSLVAIEENKNIPFSIKRVYYIFDTKGEEPRGFHANKKLEQVLVCLNGSCRVILDDGNIIQEITLDSPAVGLYVGPAVWHEMHDFSSDCVMMVLASDYYDETDYIRQYDNFKKYIAKINLEKEG
MSLTARRFLNELADLYGVATSYTDYKGAHIEVSDDTLVKILRALGVNLDTSNLPNDDAIQRQIALFHDREFTRPLPPSVVAVEGDELVFPVHVHDGSPADVHIELEDGTQRDVSQVENWTAPREIDGIRWGEASFKIPGDLPLGWHKLHLKSNERSAECGLIITPARLSTADKYLDSPRSGVMAQIYSVRSTLSWGMGDFNDLGNLASVVAQDGADFLLINPMHAAEPLPPTEDSPYLPTTRRFINPIYIRVEDIPEFNQLEIDLRDDIAEMAAEFRERNLTSDIIERNDVYAAKLQVLRAIFEMPRSSEREANFVSFVQREGQGLIDFATWCADRETAQSESVHGTEPDRDELTMFYMWLQWLCDEQLAAAQKRAVDAGMSIGIMADLAVGVHPGGADAQNLSHVLAPDASVGAPPDGYNQQGQDWSQPPWHPVRLAEEGYIPWRNLLRTVLRHSGGIRVDHVLGLFRLFVMPRMQSPATGTYIRFDHNALVGILALEAELAGAVVIGEDLGTFEPWVQDALAQRGIMGTSILWFEHSPSQPGPRRQEEYRPLALTTVTTHDLPPTAGYLEGEHIALRERLGVLNTDPAAELAEDLQWQAEILDVAASANALPAREYVGLERDQRGELAELLEGLHTFVAKTPSALTCVCLVDMVGEKRAQNQPGTTRDMYPNWCIPLCDSEGNSVLIESLRENELYHRVAKASKRDEGHHHHHH

Soluble on expression in E. coli, not soluble:
MGSDKIHHHHHHMNGQPLIQVSDFEGPLDLLLHLIKTNEMDIYDIRISTITSQYLTYLHQMQLVRLDVAGEYFVMAANLMAIKAKLLLPKPQSVVPVDEDEPADPREELVNQLLEYQRYKQAAQALKQRALERQQHFTRPAMAVPESVELTVAPGIKPVDLQTALVRLMQRATLAKPVTQSVHQEHFTIKRQMTTILQRLKGTTAPVAFEQLLVTHPVMEEVVTTFLAVLELARQRQVQLQQAGRLAPLQVNFLQMEGRFSTDVTSSTD
EMTDLQSTHKDFLFEIEEVGIKNLVYPVLVDQYQTAGTFSFSTSLTKDEKGINMSRIIESVEKHYDNGIELEFNTLYQVLRTLQTNMKQNAAGVDVSGKWFFDRYSPTTNIKAVGNADVTYGLAIDGDKVTRKELTIEATVTTLCPCSKEISEYSAHNQRGVVTVKTYINKDQNIVDDYKNKILDAMEANASSILYPILKRPDEKRVTERAYENPRFVEDLIRLIAADLVEFDWLDGFDIECRNEESIHQHDAFAKLKYRK
KMPISAGVTVERKLNDYLGIETGLLYSNLRSEGQHLHYLGIPLKANITLMDTKKIDLYATVGGVADKCIAGAPDNSFKEEPIQLAVTAGIGITYKINDRLAVFAEPG
GERLSMEDAVKLYESDEVEKMGAAANQIMLKWHPEPITTFVIGRNVNYTNFCDTYCRFCAFYRAPGHKEGYVLDDEVILKKIQETIDVGGTEILMQGGTNPDLTIDYYTDLLRNIKERFPNIWMHSFSPAEVWKIAEVSSMSVEEVLRELHEAGLDSMPGGGAEILTEETRLRVSRLKITWEQWINAMKATKKVGMHGTATMVIGFGESFEERALHLQRVRDAQDETECFTAFISWLFQPENTGMYKTKKLTPRDYLKNVAISRLFLDNIPNFQSSWVTMGPEVGKLSLQYGCNDFGSTMIEENVVSAAGTTHKVNTNKILQLIREAGKIPAQR
MGSDKIHHHHHHMGFLAREKVHLKKVVIGGSQDWLKHSYKLFKAIMNRIFGYGNKKSHDQLLQESNQSMNQAQQSLSNRISQLDTQIAQLNFQLQNIQKNLQRSNNKQPSLRKQALKILNKRKQLENMKDSLDSQSWSMTQAQLTNDNLQNTMITINALKQTNNAMKAQYGKINIDKLQDMQDEMLDLIEQGDELQEVLAMNNNSGELDDISDAELDAELDALAQEDFTLPTSENSLGNDMPSYLLGANAPPAFIDEEPNLDTEDKNKALESAQ
GPGSMSLIFFCIIPHPFTRTKCSKVSIIMQMLAPGAFFNALKVRGVTHFFGVPDPILKYFCAFVASHTTPKEHIITANEGNAVAMAAGYHLATGGLPLVYMKNSGLGDALNPLISLTHAEACSIPMFIVVGWRGAPDAGNELPCAAEGRLTEGILRAAEVPYIILSSACGNGEQSMETALDMALKHVHNSRTPYAFLVPPNFFEECAYEGVGEGIAELPMTRREAVEQALRQIDRGDIVVGAASFLAREIFEVQECAGMRHGPQFFPVGSMGHCSSVAAGIALAKPERQVFCFDGDGAFLMHMGSSATIGGVAAIHLIGTGETSLMRNYKHVVFNNGSHDSAGGQPTVSFDVSLTQVASACGFRTVREEPVMDLGETVRALQELKKAEGPAFLEVFVRRGGHSNPQCELPSLDESKQALTNCLRG
MAHHHHHHMLRCSCARRRGVYHNAPSVYPFVKPFHDTPYDQDRGRHDSVGQRYRKNSWPEWMDNGADGTGYGIGLHRTHPLSRLRGNLKRSPSHVPRVLGMMIQGVWHKSGVKLYFRGGKPPNPSVHPYLTGEPCPLYGWKVTDESVIRQFNMPSIDGTNFRYKPYVALQERKIMGVQVPSDSVSLASGRTTESKPLAKRLFFWR
AVSFTGVSGVKNIVAVTACPTGVAHTFMSAEAIEAYAKKQGWNVKVETRGQVGAGNEITVEEVAAADLVFVAADIDVPLDKFKGKPMYRTSTGLALKKTEQEFDKAFKEAKIF
GKKTRSVKSCVGKEFCRFGTQYTTRLGIRLEKTFEYIDTPHKFKMGVSGCPRSCVESGVKDFGVISVENGYQIFIGGNGGTDVTVGKLLTTVETEDEVIQLCGALMQYYRETGVYAERTAPWLERMGFENVKNVLLNQ
MSLKYVDEFRNGDYAKTLVRLIQKLTKKKINIMEICGSHTMAIFRYGIKDILPSNIRLISGPGCPVCVTSQGYIDTALELSLSREVIIATFGDMIRVPGTKTSLMKRKAEGADIKIVYSPMDALTLAENNPLKKVVFLSVGFETTTPITAITILEAKKRGVKNIFFLTSNKMVPPVMRTLVEDKELNITGFLLPGNVSAIIGKKPYEFLSSEYNVSGVVTGFEPLDILKGLKVLIDIINNNASVIVNEYKRVVRDEGNVTALRYIKEVFEVTDSTWRGIGNIEKSGYKINTEYEQFDAVKQFNINYKECDSSSECRCGDILKGKITPIECSLFKKACTPDHPVGSCMVSYEGVCAAYYKFLNTEGHHHHHH
